Assay results taken from patent US6030602A, “Peptide conjugates for transfecting cells” (Hoffmann-La Roche Inc., priority 1996, dated 2000).
Each block holds one compound with its values, some of them ahead of it.

What was measured:
Format in all cases: cell-based
[1] = system: suspension cell-line WEHI 231.7; assay: Transfection with luciferase plasmid, compound of Example 1b or cationic lipids (Table 4); details: for Luciferase activity: WEHI 231.7, 6 well plates, 2 μg DNA per well, 48 h, background subtracted, DOTAP/DOSPER at cationic lipid/DNA 5/1 (wt/wt)
Description: a) 1.0 mg of the compound obtained in Example 1b) was dissolved in trifluoroethanol and dried in vacuo. The film was then rehydrated with 1 ml of 10 mM Tris maleate buffer pH 6.
b) 10 μl of a plasmid DNA solution (1 mg/ml) were diluted with 190 μl of pure, sterile water. 100 μl of the product obtained in paragraph a) were added and gently mixed. The mixture was then added to cells.
Table 4: Transfection of various cell lines with the compound of Example 1b or cationic lipids. Cells grown in 6 well plates were transfected with a luciferase encoding plasmid (2 μg DNA per well) formulated as described earlier in this Example. Luciferase activity was measured 48 h later. Results are expressed as light units per mg of cell protein. Background was substracted from each measurement.
*)DOTAP (Avanti Polar Lipids Inc.) or DOSPER (BoehringerMannheim)
transfection complexes were prepared according to manufacturer's
instructions and were used at a cationic lipid/DNA ratio of 5/1 (wt/wt).

293-EBNA = assay: Transfection with luciferase plasmid, compound of Example 1b/DOPE or cationic lipids (Table 2); details: 48 h after transfection, Example 1b mixed with DOPE per Example 2, DOTAP, Lipofectamine per manufacturer
Description: (§1) a) 1.1 mg of the compound obtained in Example 1b) were solubilized in trifluoroethanol and mixed with 1.1 mg of dioleoylphosphatidyl-ethanolamine (DOPE) in chloroform. The mixture was dried in vacuo and the remaining film rehydrated with 1 ml of 30 mM Tris Cl buffer pH 8.5. […]
(§2) b) Plasmid DNA (10 μg) was diluted in 400 μl of 30 mM Tris Cl buffer pH 8.5. Then […] of the product obtain in paragraph a) were added and gently mixed. The mixture was then added to cells.
(§3) |Transfection of various cell lines with a mixture of the | compound of Example 1b and DOPE or cationic lipids. Cells were | transfected with a luciferase encoding plasmid formulated as described | earlier in this Example. Luciferase activity was measured 48 h after | transfection. Results are expressed as μ Units per well, | ^2) DOTAP and Lipofectamine transfection complexes were prepared
(§4) according to the manufacturer's instructions.

C2E12 = assay: as above; details: 48 h after transfection, Example 1b mixed with DOPE per Example 2, DOTAP, Lipofectamine per manufacturer
Description: as §1, §2, §3, §4

CHO K1 = assay: as above; details: 48 h after transfection, Example 1b mixed with DOPE per Example 2, DOTAP, Lipofectamine per manufacturer
Description: as §1, §2, §3, §4

HeLa = assay: as above; details: 48 h after transfection, Example 1b mixed with DOPE per Example 2, DOTAP, Lipofectamine per manufacturer
Description: as §1, §2, §3, §4

LM tk- = assay: as above; details: 48 h after transfection, Example 1b mixed with DOPE per Example 2, DOTAP, Lipofectamine per manufacturer
Description: as §1, §2, §3, §4

LM = assay: as above; details: 48 h after transfection, Example 1b mixed with DOPE per Example 2, DOTAP, Lipofectamine per manufacturer
Description: as §1, §2, §3, §4

3T3 = assay: Transfection with β-galactosidase plasmid, increasing DNA doses (Table 3); details: mixture with DOPE, 48 h after transfection
Description: as §1, §2
(§5) The effect of DNA dose on the transfection efficiency of various cell lines using the compound obtained in Example 1b formulated according to the example 2 is shown in Table 3.
(§6) |Transfection of various cell lines with a mixture of the | compound of Example lb and DOPE using increasing DNA doses. Cells
(§7) were transfected with a β-galactosidase encoding plasmid formulated […]
(§8) described earlier in this Example. β-galactosidase activity was […]
(§9) 48 h after transfection. Results are expressed as μ Units per well, […]

COS-1 = assay: as above; details: mixture with DOPE, 48 h after transfection
Description: as §1, §2, §5, §6, §7, §8, §9

CV-1 = assay: as above; details: mixture with DOPE, 48 h after transfection
Description: as §1, §2, §5, §6, §7, §8, §9

HepG2 = assay: as above; details: mixture with DOPE, 48 h after transfection
Description: as §1, §2, §5, §6, §7, §8, §9

various cell lines = assay: Toxicity on cells at high doses of DNA and compound (Table 3 experiment); details: formulated according to Example 2
Description: a) 1.1 mg of the compound obtained in Example 1b) were solubilized in trifluoroethanol and mixed with 1.1 mg of dioleoylphosphatidyl-ethanolamine (DOPE) in chloroform. The mixture was dried in vacuo and the remaining film rehydrated with 1 ml of 30 mM Tris Cl buffer pH 8.5.
as §2, §5

293 EBNA cells = assay: Transfection of 293 EBNA cells with compound of Example 1b, polyethylenimine or a mixture thereof (Table 5); details: 6 cm dishes, 1 μg DNA per well, 48 h
Description: a) 1.0 mg of the compound obtained in Example 1b) was dissolved in trifluoroethanol and dried in vacuo. The film was then rehydrated with 1 ml of 10 mM Tris maleate buffer pH 6. b) 10 μl of a plasmid DNA solution (1 mg/ml) were diluted with 200 μl of pure, sterile water. 39 μl of the product obtained in paragraph a) and 14 μl of an aqueous polyethylenimine solution (0.45 mg/ml) were added. The mixture was adjusted with water to 300 μl, gently mixed and then added to 292 EBNA cells. […]
c) 10 μl of a plasmid DNA solution (1 mg/ml) were diluted with 200 μl of pure, sterile water. 52 μl of the product obtained in paragraph a) were added and adjusted with water to 300 μl. The mixture was gently mixed and then added to 292 EBNA cells. […]
d) 10 μl of a plasmid DNA solution (1 mg/ml) were diluted with 200 μl of pure, sterile water. 56 μl of an aqueous polyethylenimine solution (0.45 mg/ml) were added and adjusted with water to 300 μl. The mixture was gently mixed and then added to 292 EBNA cells.
Transfection of 293 EBNA cells with the compound of Example
| 1b, polyethylenimine or a mixture thereof. Cells grown in 6 cm dishes | were transfected with a luciferase encoding plasmid (1 μg DNA per […]
formulated as described earlier in this Example. Luciferase activity […]
measured 48 h later. Results are expressed as relative light units per

Compound: CCCCCCCC/C=C\CCCCCCCC(=O)OCC(COC(=O)CCCCCCC/C=C\CCCCCCCC)NC(=O)C(CCCNCCCN)NCCCN (stereo not drawn) [DOSPER]
Luciferase activity [1]: 0 light units per mg of cell pro

Luciferase activity (293-EBNA): 706718 μ Units per well | Luciferase activity (C2E12): 156947 μ Units per well | Luciferase activity (CHO K1): 814133 μ Units per well | Luciferase activity (HeLa): 5409 μ Units per well | Luciferase activity (LM tk-): 594518 μ Units per well | Luciferase activity (LM): 68614 μ Units per well
Compound: CCCCCCCC/C=C\CCCCCCCC(=O)OCC(C[N+](C)(C)C)OC(=O)CCCCCCC/C=C\CCCCCCCC (stereo not drawn) [DOTAP, reference compound]
Luciferase activity [1]: 0 light units per mg of cell pro

Compound: compound of formula IIA wherein R^1 and R^2 are oleoyl and R^3 is the residue --(CH2)--CH(NH2)--CO-Ile-Gly-Ala-Val-Leu-Lys-Val-Leu-Thr-Thr-Gly-Leu-Pro-Ala-Leu-Ile-Ser-Trp-Ile-Lys-Arg-Lys-Arg-Gln-Gln-NH2 [Example 1b]
Luciferase activity (293-EBNA): 2343658 μ Units per well | Luciferase activity (C2E12): 563827 μ Units per well | Luciferase activity (CHO K1): 1825019 μ Units per well | Luciferase activity (HeLa): 33497 μ Units per well | Luciferase activity (LM tk-): 1712739 μ Units per well | Luciferase activity (LM): 31685 μ Units per well | Galactosidase activity (3T3; 0.2 μg DNA): 318 μ Units per well | Galactosidase activity (3T3; 0.5 μg DNA): 451 μ Units per well | Galactosidase activity (3T3; 1 μg DNA): 1032 μ Units per well | Galactosidase activity (3T3; 2 μg DNA): 1301 μ Units per well | Galactosidase activity (COS-1; 0.2 μg DNA): 16325 μ Units per well | Galactosidase activity (COS-1; 0.5 μg DNA): 20545 μ Units per well | Galactosidase activity (COS-1; 1 μg DNA): 16005 μ Units per well | Galactosidase activity (COS-1; 2 μg DNA): 15740 μ Units per well | Galactosidase activity (CV-1; 0.2 μg DNA): 2700 μ Units per well | Galactosidase activity (CV-1; 0.5 μg DNA): 4440 μ Units per well | Galactosidase activity (CV-1; 1 μg DNA): 9775 μ Units per well | Galactosidase activity (CV-1; 2 μg DNA): 20434 μ Units per well | Galactosidase activity (HepG2; 0.2 μg DNA): 2533 μ Units per well | Galactosidase activity (HepG2; 0.5 μg DNA): 7944 μ Units per well | Galactosidase activity (HepG2; 1 μg DNA): 8988 μ Units per well | Galactosidase activity (HepG2; 2 μg DNA): 13816 μ Units per well | Toxicity on cells (various cell lines): without any obvious toxicity | Ability to transfect the suspension cell-line WEHI 231.7 ([1]; compared with DOTAP and DOSPER, same transfection conditions): able to transfect the suspension cell-line WEHI 231.7, albeit at a low level | Luciferase activity (293 EBNA cells): 3.9 × 10^5 relative light units per dish
